% Blocking data for two substances are collected here from patent US20250043017A1.

The experiment addresses human 4-1BB expressed with a C-terminal myc-myc-hexahistidine tag (h4-1BB.mmH) (human). As to the kind of experiment: blocking ELISA, 0.25 nM h4-1BB-mmh binding to coated 6His-Flag-h4-1BBL. For orientation: In an ELISA, binding on a coated surface is turned into a signal by an enzyme label.

human 4-1BB expressed with a C-terminal myc-myc-hexahistidine tag (h4-1BB.mmH) (human), sequence (chain, as listed by the source limits assumed): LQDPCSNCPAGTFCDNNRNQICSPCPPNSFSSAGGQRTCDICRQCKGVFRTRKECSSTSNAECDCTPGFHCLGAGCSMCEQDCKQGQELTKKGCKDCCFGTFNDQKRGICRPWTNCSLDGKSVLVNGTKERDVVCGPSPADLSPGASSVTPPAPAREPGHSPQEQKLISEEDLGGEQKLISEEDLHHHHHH

In the case of Isotype Control 2 (antibody), the % Blocking at 100 nM mAb is -11%.

In the case of Isotype Control 1 (antibody), the % Blocking at 100 nM mAb is -8%.
